According to PMC10700544:
“And” between values parts separate entries of the source, which are not always exact repeats. Equal values may be shown once.

What was measured:
[1] = target: His-tagged RNase J K649A (pET28a+) (Helicobacter pylori) (UniProt P56185); assay: AUC; sedimentation velocity of His-tagged purified proteins, alone or mixed; 25 mM Tris-HCl pH 8, 300 mM NaCl, 0.5 mM TCEP; 20 °C; 230 nm; c(s) analysis with Sedfit
[2] = target: His-tagged RNase J K649Q (pET28a+) (Helicobacter pylori) (UniProt P56185); assay: as above
[3] = target: His-tagged RNase J K649R (pET28a+) (Helicobacter pylori) (UniProt P56185); assay: as above
[4] = target: His-tagged RNase J wild type (pET28a+) (Helicobacter pylori) (UniProt P56185); assay: as above
[5] = target: His-tagged RNase J K649A (pET28a+) (Helicobacter pylori) (UniProt P56185)
[6] = target: His-tagged RhpA (pET28a+) (Helicobacter pylori) (UniProt O25029); assay: AUC; sedimentation velocity of His-tagged purified proteins, alone or mixed; 25 mM Tris-HCl pH 8, 300 mM NaCl, 0.5 mM TCEP; 20 °C; 230 nm; c(s) analysis with Sedfit
[7] = target: RhpA with C-terminal Strep-tag, from pExp-MBP (Helicobacter pylori) (UniProt O25029); assay: mass photometry; Refeyn TwoMP; 20 mM sodium phosphate pH 7.2, 300 mM NaCl; final concentration of 50 nM
[8] = target: full-length RNase J (H. pylori strain B128) with C-terminal 8xHis-tag, from pExp-xMBP-CHis (Helicobacter pylori strain B128) (UniProt P56185); assay: as above
[9] = target: full-length RNase J (H. pylori strain B128) with C-terminal 8xHis-tag, from pExp-xMBP-CHis (Helicobacter pylori strain B128) (UniProt P56185); assay: cryo-EM structure; mixture of RNase J (1 µM) and RhpA (2 µM) in 20 mM sodium phosphate pH 7.2, 500 mM NaCl, 0.5 mM TCEP; Quantifoil R1.2/1.3 grids, 200 kV Talos Arctica

For “His-tagged RNase J K649A (pET28a+) (from UniProt P56185 1-689) (enzyme)”, the stoichiometry N [1] was 4.
With “His-tagged RNase J K649Q (pET28a+) (from UniProt P56185 1-689) (enzyme)” the stoichiometry N [2] was 4 and 2.
“His-tagged RNase J K649R (pET28a+) (from UniProt P56185 1-689) (enzyme)” was tested, and the stoichiometry N [3] was 4 and 2.
With “His-tagged RNase J wild type (pET28a+) (from UniProt P56185 1-689) (enzyme)” the stoichiometry N [4] was 2 and 4.
With “His-tagged RhpA (pET28a+) (from UniProt O25029 1-492) (enzyme)” the half-life of the structured RNA substrate with the complex between RhpA and the RNase J K649A variant (value of the text, differs from the table) [5] was 6.7 min and the stoichiometry N [6] was 2.
“RhpA with C-terminal Strep-tag, from pExp-MBP (from UniProt O25029 1-492) (enzyme)” was tested, and the stoichiometry N [7] was 2.
Substance “full-length RNase J (H. pylori strain B128) with C-terminal 8xHis-tag, from pExp-xMBP-CHis (from UniProt P56185 1-689) (enzyme)” has a stoichiometry N [8] of 4 and a stoichiometry N [9] of 4.
